PLA puncta fluorescence intensity per cell, % of rest, after 1-min stimulation, PLA puncta fluorescence intensity per cell, % of rest, PMA 5 min and PLA puncta fluorescence intensity per cell, % of rest, PMA 15 min data for three molecules are collected here from doi:10.1101/779520.

Where two headings read alike, the source gives them in different places.

The target in assay [1] is otoferlin (mouse (endogenous in inner hair cells)). Description: proximity ligation.
For assay [2] the target is unchanged. Description: proximity ligation. This is another data set of the same source.

otoferlin (mouse (endogenous in inner hair cells)), sequence (Q9ESF1 whole entry): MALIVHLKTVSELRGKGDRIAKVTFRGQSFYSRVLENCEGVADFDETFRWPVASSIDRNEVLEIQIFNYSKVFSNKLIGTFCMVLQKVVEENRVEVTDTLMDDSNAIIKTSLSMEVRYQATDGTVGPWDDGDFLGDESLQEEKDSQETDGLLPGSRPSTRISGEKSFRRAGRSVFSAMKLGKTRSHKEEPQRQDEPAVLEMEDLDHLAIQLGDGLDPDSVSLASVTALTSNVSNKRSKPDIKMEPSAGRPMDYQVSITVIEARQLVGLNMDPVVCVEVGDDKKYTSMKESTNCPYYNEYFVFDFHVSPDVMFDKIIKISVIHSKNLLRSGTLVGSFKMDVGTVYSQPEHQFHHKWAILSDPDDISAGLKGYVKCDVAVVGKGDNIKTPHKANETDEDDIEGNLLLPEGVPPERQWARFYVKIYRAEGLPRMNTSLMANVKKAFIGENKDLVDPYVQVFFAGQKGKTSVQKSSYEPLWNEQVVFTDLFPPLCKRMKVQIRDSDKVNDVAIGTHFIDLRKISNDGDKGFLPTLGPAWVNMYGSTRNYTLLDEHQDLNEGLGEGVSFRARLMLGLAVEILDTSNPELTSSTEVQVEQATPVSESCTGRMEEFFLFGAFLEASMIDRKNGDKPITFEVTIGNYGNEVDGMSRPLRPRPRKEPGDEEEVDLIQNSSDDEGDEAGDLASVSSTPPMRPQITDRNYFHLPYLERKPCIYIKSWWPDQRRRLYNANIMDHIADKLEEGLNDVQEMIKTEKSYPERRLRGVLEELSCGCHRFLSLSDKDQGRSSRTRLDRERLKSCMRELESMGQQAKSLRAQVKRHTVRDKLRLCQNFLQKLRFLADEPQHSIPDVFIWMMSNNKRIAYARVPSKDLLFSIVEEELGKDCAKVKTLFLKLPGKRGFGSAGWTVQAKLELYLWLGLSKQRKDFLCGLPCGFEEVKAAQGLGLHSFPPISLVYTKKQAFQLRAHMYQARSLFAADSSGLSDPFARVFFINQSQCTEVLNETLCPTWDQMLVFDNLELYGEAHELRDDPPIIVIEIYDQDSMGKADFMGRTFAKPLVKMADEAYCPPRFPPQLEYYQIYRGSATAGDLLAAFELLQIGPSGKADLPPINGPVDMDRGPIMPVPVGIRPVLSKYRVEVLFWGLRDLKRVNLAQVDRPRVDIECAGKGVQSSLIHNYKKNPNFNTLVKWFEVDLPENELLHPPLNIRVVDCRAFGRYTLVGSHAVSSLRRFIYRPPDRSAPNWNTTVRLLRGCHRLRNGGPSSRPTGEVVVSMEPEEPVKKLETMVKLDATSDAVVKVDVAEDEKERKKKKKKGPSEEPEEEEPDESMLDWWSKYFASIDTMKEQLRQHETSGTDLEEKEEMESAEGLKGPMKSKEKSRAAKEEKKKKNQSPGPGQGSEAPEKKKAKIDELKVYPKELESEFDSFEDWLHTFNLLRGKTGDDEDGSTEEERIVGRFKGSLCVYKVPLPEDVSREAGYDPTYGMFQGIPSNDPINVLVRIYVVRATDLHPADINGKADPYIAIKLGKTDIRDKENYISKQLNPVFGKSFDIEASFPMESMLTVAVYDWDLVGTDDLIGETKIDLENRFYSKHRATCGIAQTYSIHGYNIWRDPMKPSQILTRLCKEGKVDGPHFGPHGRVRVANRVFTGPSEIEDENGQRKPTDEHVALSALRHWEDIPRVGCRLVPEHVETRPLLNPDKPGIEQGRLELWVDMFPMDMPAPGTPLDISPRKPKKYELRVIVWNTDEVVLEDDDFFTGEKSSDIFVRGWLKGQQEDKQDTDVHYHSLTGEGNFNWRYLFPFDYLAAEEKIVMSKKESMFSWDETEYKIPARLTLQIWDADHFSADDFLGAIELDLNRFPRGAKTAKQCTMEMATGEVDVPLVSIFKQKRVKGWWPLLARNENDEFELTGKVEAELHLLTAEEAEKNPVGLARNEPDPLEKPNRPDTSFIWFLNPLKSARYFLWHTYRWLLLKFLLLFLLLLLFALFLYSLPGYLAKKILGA

“protein kinase C α (from UniProt P20444 1-672) (enzyme)”: the PLA puncta fluorescence intensity per cell, % of rest, after 1-min stimulation in assay [1] came to 442%.

“myosin VI (from UniProt Q64331 1-1262) (natural protein)”: in assay [1], the PLA puncta fluorescence intensity per cell, % of rest, PMA 5 min worked out at 133%; the PLA puncta fluorescence intensity per cell, % of rest, PMA 15 min was determined as 149%; the PLA puncta fluorescence intensity per cell, % of rest, after 1-min stimulation is 173%.

B1: calbindin-D28k (natural protein)
chain: MAESHLQSSLITASQFFEIWLHFDADGSGYLEGKELQNLIQELLQARKKAGLELSPEMKSFVDQYGQRDDGKIGIVELAHVLPTEENFLLLFRCQQLKSCEEFMKTWRKYDTDHSGFIETEELKNFLKDLLEKANKTVDDTKLAEYTDLMLKLFDSNNDGKLELTEMARLLPVQENFLLKFQGIKMCGKEFNKAFELYDQDGNGYIDENELDALLKDLCEKNKQELDINNITTYKKNIMALSDGGKLYRTDLALILSAGDN
In assay [2], B1 yielded a PLA puncta fluorescence intensity per cell, % of rest, PMA 5 min of 175%; a PLA puncta fluorescence intensity per cell, % of rest, PMA 15 min of 161%; a PLA puncta fluorescence intensity per cell, % of rest, after 1-min stimulation of 560%.
